# Laboratory results from patent publication US20100267609.
# T1: substrate EEISEVNLAAEF
# T1 chain: EEISEVNLAAEF
# T2: substrate RWHHEVNLAAEF
# T2 chain: RWHHEVNLAAEF
# T3: substrate EVNLAVEFWHDR
# T3 chain: EVNLAVEFWHDR
# B1: memapsin 2 (spontaneously activated promemapsin 2-T1; amino acids 43-456 and 45-456 of SEQ ID NO: 8) (protein)
# chain: LRLPRETDEEPEEPGRRGSFVEMVDNLRGKSGQGYYVEMTVGSPPQTLNILVDTGSSNFAVGAAPHPFLHRYYQRQLSSTYRDLRKGVYVPYTQGKWEGELGTDLVSIPHGPNVTVRANIAAITESDKFFINGSNWEGILGLAYAEIARPDDSLEPFFDSLVKQTHVPNLFSLGLCGAGFPLNQSEVLASVGGSMIIGGIDHSLYTGSLWYTPIRREWYYEVIIVRVEINGQDLKMDCKEYNYDKSIVDSGTTNLRLPKKVFEAAVKSIKAASSTEKFPDGFWLGEQLVCWQAGTTPWNIFPVISLYLMGEVTNQSFRITILPQQYLRPVEDVATSQDDCYKFAISQSSTGTVMGAVIMEGFYVVFDRARKRIGFAVSACHVHDEFRTAAVEGPFVTLDMEDCGYNIPQTDEST
# Key:
# substrate EEISEVNLAAEF = biological target: T1, substrate EEISEVNLAAEF
# substrate RWHHEVNLAAEF = biological target: T2, substrate RWHHEVNLAAEF
# substrate EVNLAVEFWHDR = biological target: T3, substrate EVNLAVEFWHDR
protein,measurement,setting,value
B1,"rate of catalysis, competitive cleavage of a mixture of three peptides (MALDI-TOF)",substrate EEISEVNLAAEF,statistically identical rates of catalysis for the upstream EEIS (SEQ ID NO: 52) and the downstream WHDR (SEQ ID NO: 29) sequence additions
same,"rate of catalysis, competitive cleavage of a mixture of three peptides (MALDI-TOF)",substrate RWHHEVNLAAEF,the RWHH (SEQ ID NO: 53) sequence addition still demonstrated a 60-fold decrease in catalytic rate
same,"rate of catalysis, competitive cleavage of a mixture of two peptides (MALDI-TOF), against EVNLAAEFWHDR",substrate RWHHEVNLAAEF,a 60-fold decrease in the rate of catalysis for the upstream RWHH (SEQ ID NO: 53) sequence addition when compared to the downstream WHDR (SEQ ID NO: 29) sequence addition
same,Km,substrate EVNLAVEFWHDR,Km of 83±8.9 mM
